Consider two molecules from paper PMC8521288.

Where two headings read alike, the source gives them in different places.

The target in series [1] is T1, human MMP-9 (hMMP-9) (Homo sapiens, UniProt P14780 107-457). In words: AuNS aggregation by strand displacement.
Series [2] concerns the target T1, human MMP-9 (hMMP-9). In words: AuNS aggregation by strand displacement. The source holds these as a separate data set.

T1 sequence (P14780 107-457): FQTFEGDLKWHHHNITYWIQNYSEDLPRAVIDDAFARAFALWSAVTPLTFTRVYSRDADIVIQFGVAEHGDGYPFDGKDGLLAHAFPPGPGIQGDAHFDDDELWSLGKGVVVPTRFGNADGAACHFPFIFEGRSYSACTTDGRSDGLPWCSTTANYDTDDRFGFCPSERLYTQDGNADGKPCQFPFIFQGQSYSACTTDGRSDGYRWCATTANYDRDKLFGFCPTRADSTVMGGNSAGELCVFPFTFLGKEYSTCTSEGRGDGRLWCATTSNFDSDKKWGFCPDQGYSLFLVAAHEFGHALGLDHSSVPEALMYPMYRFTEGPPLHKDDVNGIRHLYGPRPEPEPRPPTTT

B1: control aptamer (annealed to control comp-1 on cAuNS-1; control sensor) (mixed)
DNA 1: CCGGTGTTCGAGACAAGAGTCCAGGG
DNA 2: CTCTCGAACACCGGAA
modifications: 3' ThioMC3-D (thiol) on control comp-1
On to B1, for which, in the series with human MMP-9 (hMMP-9) [1], the binding result was “no binding”.

B2: MMP-9 aptamer (annealed to comp-1 on AuNS-1; MMP sensor) (mixed)
DNA 1: TCGTATGGCACGGGGTTGGTGTTGGGTTGG
DNA 2: GGTGTGCCATACGAAA
modifications: 3' ThioMC3-D (thiol) on comp-1
With B2, the binding result with human MMP-9 (hMMP-9) [2] was “binds”.
